Experimental findings from PMC13483476 (2026) are described below.

This experiment concerns the target 5768-p27 V3 peptide (HIV-1 clade B isolate 5768-p27). Kind of experiment: SPR.

B1: 19b antigen-binding fragment (Fab) (Fab, V domains shown)
VH: EVQLVQSGGALIQPGGSLRLSCAASGFTFVDYAMSWVRQAPGKGLQWVSTIIGSGADTYYTDSVKGRFTISRDNSNNTVHLQMNSLRADDTALYYCVRGVFDLWGQGTLVTVSS
VL: DIVLTQSPPSLSASVGDRVTITCQASQDISDHLSWFQQKPGKAPKLLVYGVSSLEAGVPSRFSVSGSGTHFTFTVNGLQPEDLATYFCQQYDDLPWTFGPGTVVEVK
Take B1: the off-rate constant (koff) (usually the first-order rate constant of dissociation) came out at 0.000147 s⁻¹.
